Where only a bound is given, the exact number is not on record here.

Experiment [1] concerns the target T1, platelet factor 4 (PF-4) in Cynomolgus monkey plasma (Cynomolgus monkey (Macaca fascicularis), UniProt A0A7N9D5L6 32-101).
T1 construct: Endogenous protein of the plasma; detected with rabbit polyclonal anti-HPF4 (Abcam ab9561); also called CXCL4
T1 sequence: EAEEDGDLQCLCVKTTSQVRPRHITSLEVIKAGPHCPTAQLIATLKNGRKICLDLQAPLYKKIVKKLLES
Briefly: sandwich-ELISA: antibody coated on the plate, dilution series of cynomolgus plasma, bound PF-4 detected (OD450nm). A general note: In an ELISA, binding on a coated surface is turned into a signal by an enzyme label.

The target in experiment [2] is T2, human platelet factor 4 (PF-4) in HPF4-spiked human plasma (human).
T2 construct: Human EDTA plasma pool (4 donors) spiked with 10 ng/ml human PF4 (Molecular Innovation cat. no. HPF4); also called human PF4; CXCL4
Briefly: aligned sandwich ELISA (E4), HPF4-spiked human plasma; AUC of reference anti-HPF4 antibody (ab49735) against AUC of this antibody.

Experiment [3] concerns the target T1, platelet factor 4 (PF-4) in Cynomolgus …. Briefly: sandwich ELISA (E1), cynomolgus plasma; AUC of reference anti-HPF4 antibody (ab49735) against AUC of this antibody.
For experiment [4] the target is unchanged. The experiment in a line: aligned sandwich ELISA (E3), cynomolgus plasma; AUC of reference anti-HPF4 antibody (ab49735) against AUC of this antibody. Here is the method:
(§1) Then 10 μl 10 mg/ml trypsin inhibitor in H₂O were added. After incubation for 10 min at room temperature the sample was filtrated through a 0.22 μm filter (Millipore cat. no. SLGS0250S).
(§2) Procedure used: [0437] 1. 100 μl of the respective aligning antibody solution (anti-human IgG for experiment E3; anti-murine IgG for reference experiment R3) per well were applied and incubated overnight at 4° C. [0438] 2. The antibody solution was discarded and the wells were washed three times with 250 μl PB ST-buffer. [0439] 3. 265 μl blocking solution per well were added and incubated 2 h at room temperature. [0440] 4. The blocking solution was discarded and the wells were washed three times with 250 μl PBST buffer. [0441] 5. After preparation of the dilution series of each binding antibody, 100 μl per well of these antibody dilutions were applied to the plate. The plate was incubated 2 h at room temperature. [0442] 6. […] Plate colour was monitored during development (5-15 min at ambient temperature) and the reaction was terminated by adding 50 μl/well of stop solution when an appropriate colour had developed. […] The absorbance was read at 450 nm.
(§3) Data analysis was performed as described for sandwich-ELISA with cynomolgus plasma in Example 3.1, except that not plasma dilution factors but the amounts of antibody (expressed in ng/ml) were used as X-values and thus concentration effect curves were calculated.

The target of experiment [5] is T2, human platelet factor 4 (PF-4) in …. The experiment in a line: sandwich ELISA (E2), HPF4-spiked human plasma; AUC of reference anti-HPF4 antibody (ab49735) against AUC of this antibody.
In experiment [6] the target is T3, Aβ(20-42) globulomer (human).
T3 construct: Range counted on the Aβ peptide; also called amyloid-beta (20-42) globulomer
T3 peptide: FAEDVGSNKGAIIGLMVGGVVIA
Briefly: SPR (BIAcore); antibody captured on goat anti-human IgG Fc, soluble globulomer injected; lot #1759119, experiment 2. As to the method: (§4) Interaction of the purified humanized antibodies 4D10hum#1 and 4D10hum#2 to Aβ(20-42) globulomer was evaluated by surface plasmon resonance (SPR) analysis using a BIAcore device. Goat anti-human IgG Fc (10,000 RU) was directly immobilized on a CMS sensor chip by an amine coupling procedure according to the manufacturer's instructions (BIAcore). The respective 4D10hum antibody was captured on the goat anti-human IgG Fc coated surface of the chip by injecting 5.0 μl of a 1 μg/ml 4D10hum antibody solution at a flow rate of 10-15 μl/min. Interaction of soluble Aβ(20-42) globulomer with the 4D10hum antibody on the sensor chip was examined by injecting globulomer solutions (concentration range: 20-0.3125 nM) at a flow rate of 50 μl/min. The association rate was monitored for 5.0 min and the dissociation rate was monitored for 10 min. From the resulting sensorgrams the association rate constant (kₒₙ), dissociation rate constant (koff) and equilibrium dissociation constant (KD) were determined using to the manufacturer's software and instructions. The kinetic and equilibrium constants determined for three different preparations of 4D10hum#1 and two different preparations of 4D10hum#2 are summarized in table 7. […] The heavy chains of antibodies #4 and #5 are as in 4D10hum#1 or #2, and the light chains are chimeras of m4D10 VL (SEQ ID NO:24) and the human Ig kappa constant region (SEQ ID NO:27). The light chains of antibody #3 are as in 4D10hum#1 and #2, and the heavy chains are chimeras of m4D10 VH (SEQ ID NO23) and the human Ig gamma-1 constant region (SEQ ID NO:25).
On the technique in general: In SPR one partner is held on a chip, and binding of the other changes the refractive index at the surface.

Experiment [7] addresses T3, Aβ(20-42) globulomer. Briefly: SPR (BIAcore); antibody captured on goat anti-human IgG Fc, soluble globulomer injected; lot #1759119, average. Here is the method: as §4
Experiment [8] has as its target T3, Aβ(20-42) globulomer. The experiment in a line: SPR (BIAcore); antibody captured on goat anti-human IgG Fc, soluble globulomer injected; lot #1773659, experiment 1. Here is the method:
as §4

The target in experiment [9] is T3, Aβ(20-42) globulomer. Briefly: SPR (BIAcore); antibody captured on goat anti-human IgG Fc, soluble globulomer injected; lot #1759119, experiment 1. Here is the method: as §4
In experiment [10] the target is T1, platelet factor 4 (PF-4) in Cynomolgus …. The experiment in a line: aligned sandwich ELISA (E3), cynomolgus plasma; AUC was 0, ratio could not be calculated. Here is the method:
as §1, §2, §3

The target in experiment [11] is T3, Aβ(20-42) globulomer. Briefly: SPR (BIAcore); antibody captured on goat anti-human IgG Fc, soluble globulomer injected; lot #1773659, average. As to the method:
as §4

The target of experiment [12] is T3, Aβ(20-42) globulomer. Briefly: SPR (BIAcore); antibody captured on goat anti-human IgG Fc, soluble globulomer injected; lot #1773659, experiment 2. Here is the method:
as §4

For experiment [13], the target named is T3, Aβ(20-42) globulomer. The experiment in a line: SPR (BIAcore); antibody captured on goat anti-human IgG Fc, soluble globulomer injected; experiment 2. Here is the method: as §4
In experiment [14] the target is T3, Aβ(20-42) globulomer. The experiment in a line: SPR (BIAcore); antibody captured on goat anti-human IgG Fc, soluble globulomer injected; experiment 1. Here is the method: as §4
The target in experiment [15] is T3, Aβ(20-42) globulomer. The experiment in a line: SPR (BIAcore); antibody captured on goat anti-human IgG Fc, soluble globulomer injected; average. Here is the method: as §4
In experiment [16] the target is T2, human platelet factor 4 (PF-4) in …. Briefly: sandwich ELISA (R2), HPF4-spiked human plasma; AUC of reference anti-HPF4 antibody (ab49735) against AUC of this antibody.
For experiment [17] the target is unchanged. Briefly: aligned sandwich ELISA (R4), HPF4-spiked human plasma; AUC of reference anti-HPF4 antibody (ab49735) against AUC of this antibody.

B1: humanized monoclonal anti-Aβ antibody 4D10hum#1 (antibody, human IgG1, kappa, V domains shown)
VH: EVQLVESGGGLVQPGGSLRLSCAVSGFTLSSYGVHWVRQAPGKGLEWLGVIWRGGRIDYNAAFMSRLTISKDNSKSTVYLQMNSLRAEDTAVYYCARNSDVWGQGTTVTVSS
VL: DVVMTQTPLSLPVTPGQPASISCKSSQSLLDIDGKTYLNWLLQKPGQSPQRLIYLVSKLDSGVPDRFSGSGSGTDFTLKISRVEAEDVGVYYCWQGTHFPYTFGQGTKLEIKR
notes: also called mAb 4D10hum#1; mAb 4D10 hum#1
As to B1, the binding result in experiment [1] is recorded as “no binding (tested: plasma dilution 1:3.16)”. The “Ratio HPF4/aAβ antibody” value in experiment [2] stood at 23; in [3] it was 64; in experiment [4], 158; in [5], 30.

B2: humanized monoclonal anti-Aβ antibody 4D10hum#2 (antibody, human IgG1, kappa, V domains shown)
VH: EVQLQESGPGLVKPSETLSLTCTVSGFSLSSYGVHWVRQPPGKGLEWLGVIWRGGRIDYNAAFMSRLTISKDTSKSQVSLKLSSVTAADTAVYYCARNSDVWGQGTTVTVSS
VL: DVVMTQTPLSLPVTPGQPASISCKSSQSLLDIDGKTYLNWLLQKPGQSPQRLIYLVSKLDSGVPDRFSGSGSGTDFTLKISRVEAEDVGVYYCWQGTHFPYTFGQGTKLEIKR
notes: also called mAb 4D10hum#2; mAb 4D10 hum#2
By Kd is commonly meant a measure of binding affinity in units of concentration. The koff is a measure of how fast the partners let go of each other. One may read the kon as the second-order rate constant of association. For B2, the Kd in experiment [6] was determined as 0.609 nM; in [7], 0.532 nM; in experiment [8] it was 0.529 nM; in experiment [9], 0.454 nM; in experiment [11] it was 0.482 nM; in experiment [12] it was 0.435 nM. Also, the koff is 0.000332 s⁻¹ in [6]; 0.000301 s⁻¹ in experiment [7]; 0.000268 s⁻¹ in experiment [8]; 0.00027 s⁻¹ in [9]; 0.000283 s⁻¹ in experiment [11]; 0.000298 s⁻¹ in experiment [12]. For the same molecule, the kon in experiment [6] was found to be 546000 M⁻¹ s⁻¹; in experiment [7] it was 570000 M⁻¹ s⁻¹; in experiment [8], 507000 M⁻¹ s⁻¹; in experiment [9], 593000 M⁻¹ s⁻¹; in experiment [11] it was 597000 M⁻¹ s⁻¹; in experiment [12] it was 686000 M⁻¹ s⁻¹. The binding result in [1] was “no binding (tested: plasma dilution 1:3.16)”. Moreover, the “Ratio HPF4/aAβ antibody” value in [2] was 75; in experiment [3], 36; in [10], greater than 158; in experiment [5] it was 17.

B3: 4D10#3 (chimeric heavy chain; light chain as 4D10hum#1 and #2) (antibody, human IgG1, kappa, V domains shown)
VH: QVQLKQSGPSLIQPSQSLSITCTVSGFSLTSYGVHWVRQSPGKGLEWLGVIWRGGRIDYNAAFMSRLSITKDNSKSQVFFKMNSLQADDTAIYYCARNSDVWGTGTTVTVSS
VL: DVVMTQTPLSLPVTPGQPASISCKSSQSLLDIDGKTYLNWLLQKPGQSPQRLIYLVSKLDSGVPDRFSGSGSGTDFTLKISRVEAEDVGVYYCWQGTHFPYTFGQGTKLEIKR
notes: Heavy chain is a chimera of m4D10 VH and the human Ig gamma-1 constant region; light chain is the humanized one; also called antibody #3
As for B3, the Kd in experiment [13] was 0.669 nM; in [14], 0.525 nM; in experiment [15] it was 0.597 nM. Also, the koff amounted to 0.000349 s⁻¹ in experiment [13], 0.000317 s⁻¹ in experiment [14] and 0.000333 s⁻¹ in experiment [15]. Further, the kon was 522000 M⁻¹ s⁻¹ in experiment [13], 603000 M⁻¹ s⁻¹ in experiment [14] and 563000 M⁻¹ s⁻¹ in [15].

B4: 4D10#5 (heavy chain as 4D10hum#2; chimeric light chain) (antibody, human IgG1, kappa, V domains shown)
VH: EVQLQESGPGLVKPSETLSLTCTVSGFSLSSYGVHWVRQPPGKGLEWLGVIWRGGRIDYNAAFMSRLTISKDTSKSQVSLKLSSVTAADTAVYYCARNSDVWGQGTTVTVSS
VL: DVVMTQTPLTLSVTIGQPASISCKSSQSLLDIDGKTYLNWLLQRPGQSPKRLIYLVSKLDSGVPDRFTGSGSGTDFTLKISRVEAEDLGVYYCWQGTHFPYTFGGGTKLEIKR
notes: Light chain is a chimera of m4D10 VL and the human Ig kappa constant region; also called antibody #5
For B4, the figures for the Kd in experiment [13], in [14] and in experiment [15] were 0.619 nM, 0.53 nM and 0.575 nM, respectively. Moreover, the koff stood at 0.000292 s⁻¹ in experiment [13], 0.000262 s⁻¹ in experiment [14] and 0.000277 s⁻¹ in experiment [15]. In addition, the kon in experiment [13] was 472000 M⁻¹ s⁻¹; in experiment [14] it was 494000 M⁻¹ s⁻¹; in experiment [15], 483000 M⁻¹ s⁻¹.

B5: 4D10#4 (heavy chain as 4D10hum#1; chimeric light chain) (antibody, human IgG1, kappa, V domains shown)
VH: EVQLVESGGGLVQPGGSLRLSCAVSGFTLSSYGVHWVRQAPGKGLEWLGVIWRGGRIDYNAAFMSRLTISKDNSKSTVYLQMNSLRAEDTAVYYCARNSDVWGQGTTVTVSS
VL: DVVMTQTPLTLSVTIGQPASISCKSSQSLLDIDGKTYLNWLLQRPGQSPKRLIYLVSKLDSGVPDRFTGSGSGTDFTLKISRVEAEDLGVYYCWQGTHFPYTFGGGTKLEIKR
notes: Light chain is a chimera of m4D10 VL and the human Ig kappa constant region; also called antibody #4
For the molecule B5, in experiment [13], the affinity, expressed as Kd, was 0.657 nM; the koff was found to be 0.000332 s⁻¹; the kon amounted to 506000 M⁻¹ s⁻¹. In experiment [14], this molecule came in with a Kd of 0.635 nM, a koff of 0.000294 s⁻¹ and a kon of 462000 M⁻¹ s⁻¹. In experiment [15], this molecule displayed a Kd of 0.646 nM, a koff of 0.000313 s⁻¹ and a kon of 484000 M⁻¹ s⁻¹.

B6: anti-Aβ monoclonal antibody clone m4D10 (antibody, V domains shown)
VH: QVQLKQSGPSLIQPSQSLSITCTVSGFSLTSYGVHWVRQSPGKGLEWLGVIWRGGRIDYNAAFMSRLSITKDNSKSQVFFKMNSLQADDTAIYYCARNSDVWGTGTTVTVSS
VL: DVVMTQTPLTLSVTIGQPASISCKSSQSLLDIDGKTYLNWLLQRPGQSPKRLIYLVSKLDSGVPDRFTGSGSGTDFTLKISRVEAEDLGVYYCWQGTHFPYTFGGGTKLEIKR
notes: Murine monoclonal antibody; also called mAb m4D10; murine 4D10
With B6, the “Ratio HPF4/aAβ antibody” value in experiment [16] is 21; in experiment [17], 27.
